# Measurements reported in US20040019193A1, “Mob-5/hmob-5 as a cancer diagnostic marker” (priority 2002, published 2004).
# T1: hMob-5 (Homo sapiens, UniProt Q13007)
# T1 sequence (Q13007 1-207 isoform Q13007-2): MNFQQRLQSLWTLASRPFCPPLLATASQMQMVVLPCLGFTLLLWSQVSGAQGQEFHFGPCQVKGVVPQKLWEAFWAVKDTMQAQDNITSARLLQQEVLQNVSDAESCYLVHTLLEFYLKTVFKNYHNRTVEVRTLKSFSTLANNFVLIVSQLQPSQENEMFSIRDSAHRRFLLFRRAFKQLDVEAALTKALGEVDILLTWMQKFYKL
# Key:
# Rat-1 cells = assay: Over expression of Mob-5 in Rat-1 cells, morphological transformation; type: cell-based; settings: retroviral over expression of Mob-5 alone in Rat-1 cells
# Description: Over expression of the full length mob-5 cDNA with retroviral vector in a variety of rodent fibroblasts including Rat-1 cells led to high level secretion of Mob-5 protein with a predicted MW of 23 KD into the culture media, which could be readily detected by western blot using polyclonal antibody directed against the recombinant Mob-5 (FIG. 4A).
# Construction of mob-5 mammalian expression construct A 680-bp BspHI-Bgl II restriction fragment containing the entire coding region of mob-5 was generated by PCR using cloned mob-5 cDNA as a template. The targeting construct was subsequently inserted between the Nco I and Bam I sites of retroviral vector pMFG-S (Danos and Mulligan, 1988; Dranoff, G. et al. 1993) and sequenced to ensure the sequence accuracy.
# Transfection and Retroviral Infection Recombinant plasmids were transfected into target cells by the standard calcium phosphate precipitation method. For retroviral packaging, pMFG-S-Mob-5 was cotransfected with pCMV-Neo vector at a rate of 10:1 (10 μg of pCMV-S-rMob-5: 1 μg of pCMV-Neo) into the CRIP packaging cells to produce G418 (1 mg/ml) resistant stable cell lines. Retroviral infection was carried out essentially as described previously (Zhang et al., 1998). […]
# [1] = system: putative Mob-5 receptor on the cell surface of h-ras transformed RIE cells; assay: AP fusion protein receptor binding assay on RIE cells before and after h-ras transformation; parameters: species or system rat; settings: normal versus h-ras transformed RIE cells, media at 0.7 unit/ml
# Procedure: (E) Mob-5-AP, but not hMob-5-AP, binds specifically to the cell surface of oncogenic h-ras transformed RIE cells. Both the normal and oncogenic h-ras transformed RIE cells were analyzed for the ability to bind Mob-5-AP versus AP alone. The same experiment was carried out with hMob-5-AP and AP alone. The cell surface bound AP activity was measured to reveal a species specific Mob-5 binding activity present only on the cell surface of the h-ras transformed RIE cells. The result is representative of at least 3 independent experiments.
# As in Rat-1 cells, the putative Mob-5 receptor was also found to be differentially expressed between the normal and h-ras transformed RIE cells using Mob-5-AP fusion protein as a ligand (FIG. 4E, left panel). To determine whether hMob-5-AP could also differentially bind to the cell surface of h-ras transformed RIE cells, the receptor binding assay was conducted using hMob-5-AP in place of Mob-5-AP.
# mob-5 expression is activated by both oncogenic h-ras and k-ras in intestinal epithelial cells Cancer arises from the epithelial cells rather than fibroblasts and K-ras mutations have been tightly linked with cancers of gastric intestinal origins (Kiaris and Spandidos, 1995). […] After the final 5 min extension at 72 ° C., the RT-PCR products were analyzed on a 1.5 % agarose gel. […]
# hMob-5 = target: T1, hMob-5; assay: GBA bead capture ELISA for Mob-5, standard curve
# Procedure: This allows the use of GBA in a method for detecting Mob-5 in an ELISA. GBA is utilized to capture the antigen (i.e. Mob-5) and a biotinylated monoclonal antibody to Mob-5 is used to detect the antigen. The use of GBA allows for higher capacity and lower costs when compared to the traditional ELISA method. The method is performed by diluting a biotinylated Mab-hMob-5 (for example, the monoclonal antibody produced from hybridoma clone L-14) 1:500 in PBST (Phosphate Buffered Saline, Tween 0.05%); diluting Streptavidin-HRP (Sigma) 1:500 in PBST; mixing the diluted Mab-hMob-5 with the diluted Streptavidin-HRP in equal volume (for example, […]); letting the mixture sit for 5-10 minutes; washing the GBA beads with PBST twice; spinning and removing the upper liquid phase with an aspirator; resuspending the washed GBA beads in PBST as a 50% suspension; mixing […] of a sample with 100 ml of the diluted Mab-hMob-5 and Streptavidin-HRP mixture in a tube; adding […] of resuspended GBA beads to the tube; allowing the tube to rotate on a roller for 1-2 hours; spinning down the GBA beads for 2 minutes; aspirating the supernatant; washing the beads with 1 ml of PBST twice; washing the beads with dH20 twice; removing the supernatant; adding […] of horseradish peroxidase (HRP) substrate with H2O2 to resuspend the beads; allowing the color to develop in the dark for as long as needed (from hours, to days or weeks). A hMob-5-9×His medium can be utilized as a positive control. One skilled in the art would know that variations of this protocol are possible. For example, the GBA beads may be added to the sample prior to the addition of the biotinylated Mab/streptavidin-HRP mixture, alkaline phosphatase labeled streptavidin can be used, wash times may vary, spin times may vary and development times may vary. By utilizing this method, representative results for a standard curve were obtained.
molecule,measurement,setting,value
"Mob-5: rat secreted protein of 183 amino acids, 23 KD, encoded by oncogenic ras target gene mob-5 (protein) PELQGQEFRFGPCQVTGVVLPELWEAFWTVKNTVKTQDELTSVRLLKPQVLQNVSDAESCYLAHSLLKFYLNTVFKNYHSKIVKFKVLKSFSTLANNFLVIMSKLQPSKDNAMLPISDSARRRFLLYHRTFKQLDIEVALAKAFGEVDILLAWMQNFYQL",morphological transformation on over expression,Rat-1 cells,did not lead to any obvious morphological transformation
"hMob-5-AP: human Mob-5 fused at the C-terminus with alkaline phosphatase, 90 KD (SEQ ID NO: 10) (protein) MNFQQRLQSLWTLASRPFCPPLLATASQMQMVVLPCLGFTLLLWSQVSGAQGQEFHFGPCQVKGVVPQKLWEAFWAVKDTMQAQDNITSARLLQQEVLQNVSDAESCYLVHTLLEFYLKTVFKNYHNRTVEVRTLKSFSTLANNFVLIVSQLQPSQENEMFSIRDSAHRRFLLFRRAFKQLDVEAALTKALGEVDILLTWMQKFYKLGSSGIIPVEEENPDFWNREAAEALGAAKKLQPAQTAAKNLIIFLGDGMGVSTVTAARILKGQKKDKLGPEIPLAMDRFPYVALSKTYNVDKHVPDSGATATAYLCGVKGNFQTIGLSAAARFNQCNTTRGNEVISVMNRAKKAGKSVGVVTTTRVQHASPAGTYAHTVNRNWYSDADVPASARQEGCQDIATQLISNMDIDVILGGGRKYMFPMGTPDPEYPDDYSQGGTRLDGKNLVQEWLAKRQGARYVWNRTELMQASLDPSVTHLMGLFEPGDMKYEIHRDSTLDPSLMEMTEAALRLLSRNPRGFFLFVEGGRIDHGHHESRAYRALTETIMFDDAIERAGQLTSEEDTLSLVTADHSHVFSFGGYPLRGSSIFGLAPGKARDRKAYTVLLYGNGPGYVLKDGARPDVTESESGSPEYRQQSAVPLDEETHAGEDVAVFARGPQAHLVHGVQEQTFIAHVMAFAACLEPYTACDLAPPAGTTDAAHPG",cell surface binding (bound AP activity) versus AP alone,[1],did not exhibit any preferential cell surface binding
"hMob-5: human homolog of Mob-5, secreted protein over expressed in colon cancer (protein) MNFQQRLQSLWTLASRPFCPPLLATASQMQMVVLPCLGFTLLLWSQVSGAQGQEFHFGPCQVKGVVPQKLWEAFWAVKDTMQAQDNITSARLLQQEVLQNVSDAESCYLVHTLLEFYLKTVFKNYHNRTVEVRTLKSFSTLANNFVLIVSQLQPSQENEMFSIRDSAHRRFLLFRRAFKQLDVEAALTKALGEVDILLTWMQKFYKL",OD405,hMob-5; hMob-5 2 ng/ml,0.216
same,OD405,hMob-5; hMob-5 10 ng/ml,0.941
same,OD405,hMob-5; hMob-5 20 ng/ml,1.881
